In PMC11898703:

Target: FliW-T25 (Clostridioides difficile) (UniProt Q18CX4)
Experiment: two-hybrid; bacterial two-hybrid (BACTH) in E. coli BTH101 read by β-galactosidase assay on cell lysates (10^10 CFU, bead beating in Z buffer, ONPG, ΔOD420 over 1 h)

TcdR-T18 (natural protein) showed a fold increase in β-galactosidase activity over the TcdR-T18 + T25 control of 2 fold.
